# What was measured:
# Goat anti-Human Kappa = target: T1, Goat anti-Human Kappa; assay: ELISA; positive control
# T1 construct: Positive control; also called biotinylated goat anti-human kappa light chain
# Description: (§1) The binding of ACVR2A-specific monoclonal antibodies to human ACVR2A, mouse ACVR2A, biotinylated goat anti-human kappa light chain (positive control) and human Fc (negative control) were determined by ELISA.
# Mouse ACVR2A = Mouse ACVR2A (mouse, UniProt P27038 20-135, limits assumed); assay: ELISA
# Mouse ACVR2A, sequence (P27038 20-135 limits assumed): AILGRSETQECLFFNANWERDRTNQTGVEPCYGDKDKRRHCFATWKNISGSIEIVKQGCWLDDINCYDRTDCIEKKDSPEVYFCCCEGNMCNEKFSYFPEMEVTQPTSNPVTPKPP
# Description: as §1
# Human ACVR2A = target: T2, Human ACVR2A (human, UniProt P27037 20-135, limits assumed); assay: ELISA
# T2 construct: also called activin receptor, type II A
# T2 sequence (P27037 20-135 limits assumed): as the sequence (P27038 20-135 limits assumed) above, with R20K, I73V counted along it
# Description: as §1
# Also: test concentration or dose not given here.
optical density (Goat anti-Human Kappa),optical density (Mouse ACVR2A),optical density (Human ACVR2A),Binder
3.46 OD,2.12 OD,2.08 OD,"366_D04 (antibody, V domains shown, VH/VL only) VH: EVQLLESGGGLVQPGGSLRLSCAASGFTFSSYSMNWVRQAPGKGLEWVSGINYNGGYTSYADSVKGRFTISRDNSKNTLYLQMNSLRAEDTAVYYCARSANWHDTALDYWGQGTLVTVSS VL: DIQMTQSPSSLSASVGDRVTITCRASQSISSYVNWYQQKPGKAPKLLIYATTSRASGVPSRFSGSGSGTDFTLTISSLQPEDFATYYCQQSYETPLTFGGGTKVEIK"
3.58 OD,2.42 OD,2.23 OD,"367_A02 (antibody, V domains shown, VH/VL only) VH: EVQLLESGGGLVQPGGSLRLSCAASGFTFDSYGMNWVRQAPGKGLEWVSSINYNSGYKGYADSVKGRFTISRDNSKNTLYLQMNSLRAEDTAVYYCARGATWHDTHLDYWGQGTLVTVSS VL: DIQMTQSPSSLSASVGDRVTITCRASQSIISYLNWYQQKPGKAPKLLIYAVTSRASGVPSRFSGSGSGTDFTLTISSLQPEDFATYYCQQSYDTPLTFGGGTKVEIK"
3.47 OD,2.53 OD,2.39 OD,"366_F07 (antibody, V domains shown, VH/VL only) VH: EVQLLESGGGLVQPGGSLRLSCAASGFTFSDYSMNWVRQAPGKGLEWVAGINYNSGYTSYADSVKGRFTISRDNSKNTLYLQMNSLRAEDTAVYYCARSANWHDTHLDYWGQGTLVTVSS VL: DIQMTQSPSSLSASVGDRVTITCRASQSIITYLNWYQQKPGKAPKLLIYAATSRASGVPSRFSGSGSGTDFTLTISSLQPEDFATYYCQQSYETPLTFGGGTKVEIK"
3.03 OD,2.25 OD,2.13 OD,"367_B08 (antibody, V domains shown, VH/VL only) VH: EVQLLESGGGLVQPGGSLRLSCAASGFTFSDYGMNWVRQAPGKGLEWVSGINYNGGYKGYADSVKGRFTISRDNSKNTLYLQMNSLRAEDTAVYYCARSANWHDTALDYWGQGTLVTVSS VL: DIQMTQSPSSLSASVGDRVTITCRASQSILTYLNWYQQKPGKAPKLVIYAATSRASGVPSRFSGSGSGTDFTLTISSLQPEDFATYYCQQSYDNPLTFGGGTKVEIK"
3.38 OD,2.38 OD,2.22 OD,"367_A05 (antibody, V domains shown, VH/VL only) VH: EVQLLESGGGLVQPGGSLRLSCAASGFTFSDYGMNWVRQAPGKGLEWVSSINYNGGYKGYADSVKGRFTISRDNSKNTLYLQMNSLRAEDTAVYYCARSANWHDTALDYWGQGTLVTVSS VL: DIQMTQSPSSLSASVGDRVTITCRASQSILSYLNWYQQKPGKAPKLVIYAVTSRASGVPSRFSGSGSGTDFTLTISSLQPEDFATYYCQQSYDSPLTFGGGTKVEIK"
3.3 OD,2.2 OD,2.14 OD,"367_A04 (antibody, V domains shown, VH/VL only) VH: EVQLLESGGGLVQPGGSLRLSCAASGFTFSSYSMNWVRQAPGKGLEWVSNINYNSGYKSYADSVKGRFTISRDNSKNTLYLQMNSLRAEDTAVYYCARSANWHDTALDYWGQGTLVTVSS VL: DIQMTQSPSSLSASVGDRVTITCRASQSIITYLNWYQQKPGKAPKLLIYAATSRASGVPSRFSGSGSGTDFTLTISSLQPEDFATYYCQQSDDSPLTFGGGTKVEIK"
3.39 OD,2.59 OD,2.29 OD,"366_H06 (antibody, V domains shown, VH/VL only) VH: EVQLLESGGGLVQPGGSLRLSCAASGFTFSSYGMNWVRQAPGKGLEWVSSINYNGGYTGYADSVKGRFTISRDNSKNTLYLQMNSLRAEDTAVYYCARSANWHDTALDYWGQGTLVTVSS VL: DIQMTQSPSSLSASVGDRVTITCRASQSILSYLNWYQQKPGKAPKLLIYATTSRASGVPSRFSGSGSGTDFTLTISSLQPEDFATYYCQQSYDTPLTFGGGTKVEIK"
3.37 OD,1.91 OD,1.73 OD,"366_F04 (antibody, V domains shown, VH/VL only) VH: EVQLLESGGGLVQPGGSLRLSCAASGFTFSDYGMNWVRQAPGKGLEWVSGINYNGGYTSYADSVKGRFTISRDNSKNTLYLQMNSLRAEDTAVYYCARSANWHDTALDYWGQGTLVTVSS VL: DIQMTQSPSSLSASVGDRVTITCRASQSILSYVNWYQQKPGKAPKLVIYATTSRHSGVPSRFSGSGSGTDFTLTISSLQPEDFATYYCQQSYESPLTFGGGTKVEIK"
3.02 OD,1.89 OD,1.82 OD,"367_B06 (antibody, V domains shown, VH/VL only) VH: EVQLLESGGGLVQPGGSLRLSCAASGFTFSSYSMNWVRQAPGKGLEWVANINYNGGYTGYADSVKGRFTISRDNSKNTLYLQMNSLRAEDTAVYYCARGATWHDTHLDYWGQGTLVTVSS VL: DIQMTQSPSSLSASVGDRVTITCRASQSIISYVNWYQQKPGKAPKLVIYAATSLHSGVPSRFSGSGSGTDFTLTISSLQPEDFATYYCQQSYNSPLTFGGGTKVEIK"
3.65 OD,2.46 OD,2.17 OD,"366_D08 (antibody, V domains shown, VH/VL only) VH: EVQLLESGGGLVQPGGSLRLSCAASGFTFSSYGMHWVRQAPGKGLEWVSNINYNGGYKSYADSVKGRFTISRDNSKNTLYLQMNSLRAEDTAVYYCARGATWHDTHLDYWGQGTLVTVSS VL: DIQMTQSPSSLSASVGDRVTITCRASQSILSYVNWYQQKPGKAPKLVIYAATSLASGVPSRFSGSGSGTDFTLTISSLQPEDFATYYCQQSYENPLTFGGGTKVEIK"
3.44 OD,2.66 OD,2.48 OD,"367_B03 (antibody, V domains shown, VH/VL only) VH: EVQLLESGGGLVQPGGSLRLSCAASGFTFSSYGMNWVRQAPGKGLEWVAGINYNGGYKSYADSVKGRFTISRDNSKNTLYLQMNSLRAEDTAVYYCARSANWHDTALDYWGQGTLVTVSS VL: DIQMTQSPSSLSASVGDRVTITCRASQSILTYLNWYQQKPGKAPKLLIYAATSLASGVPSRFSGSGSGTDFTLTISSLQPEDFATYYCQQSYNLPLTFGGGTKVEIK"
3.25 OD,2.67 OD,2.19 OD,"366_F05 (antibody, V domains shown, VH/VL only) VH: EVQLLESGGGLVQPGGSLRLSCAASGFTFSSYSMNWVRQAPGKGLEWVANINYNSGYKSYADSVKGRFTISRDNSKNTLYLQMNSLRAEDTAVYYCARSANWHDTHLDYWGQGTLVTVSS VL: DIQMTQSPSSLSASVGDRVTITCRASQSILTYLNWYQQKPGKAPKLLIYAATSRASGVPSRFSGSGSGTDFTLTISSLQPEDFATYYCQQSDNTPLTFGGGTKVEIK"
3.05 OD,1.22 OD,1.12 OD,"367_C08 (antibody, V domains shown, VH/VL only) VH: EVQLLESGGGLVQPGGSLRLSCAASGFTFDSYSMHWVRQAPGKGLEWVAGINYNGGYTSYADSVKGRFTISRDNSKNTLYLQMNSLRAEDTAVYYCARGATWHDTHLDYWGQGTLVTVSS VL: DIQMTQSPSSLSASVGDRVTITCRASQSILTYLNWYQQKPGKAPKLLIYAATSLASGVPSRFSGSGSGTDFTLTISSLQPEDFATYYCQQSDSNPLTFGGGTKVEIK"
3.47 OD,2 OD,1.86 OD,"366_F08 (antibody, V domains shown, VH/VL only) VH: EVQLLESGGGLVQPGGSLRLSCAASGFTFSSYGMNWVRQAPGKGLEWVSSINYNGGYTSYADSVKGRFTISRDNSKNTLYLQMNSLRAEDTAVYYCARGATWHDTHLDYWGQGTLVTVSS VL: not shown"
3.44 OD,2.04 OD,1.85 OD,"366_G09 (antibody, V domains shown, VH/VL only) VH: EVQLLESGGGLVQPGGSLRLSCAASGFTFDDYSMNWVRQAPGKGLEWVASINYNSGYTGYADSVKGRFTISRDNSKNTLYLQMNSLRAEDTAVYYCARGATWHDTHLDYWGQGTLVTVSS VL: DIQMTQSPSSLSASVGDRVTITCRASQSILSYVNWYQQKPGKAPKLVIYAATSRASGVPSRFSGSGSGTDFTLTISSLQPEDFATYYCQQSYDLPLTFGGGTKVEIK"
3.29 OD,2.18 OD,1.85 OD,"366_G04 (antibody, V domains shown, VH/VL only) VH: EVQLLESGGGLVQPGGSLRLSCAASGFTFSSYSMNWVRQAPGKGLEWVSGINYNSGYTSYADSVKGRFTISRDNSKNTLYLQMNSLRAEDTAVYYCARSANWHDTALDYWGQGTLVTVSS VL: DIQMTQSPSSLSASVGDRVTITCRASQSIITYLNWYQQKPGKAPKLLIYAATSRASGVPSRFSGSGSGTDFTLTISSLQPEDFATYYCQQSDDTPLTFGGGTKVEIK"
3.55 OD,2.77 OD,2.59 OD,"366_H08 (antibody, V domains shown, VH/VL only) VH: EVQLLESGGGLVQPGGSLRLSCAASGFTFSDYGMNWVRQAPGKGLEWVASINYNSGYTSYADSVKGRFTISRDNSKNTLYLQMNSLRAEDTAVYYCARSANWHDTHLDYWGQGTLVTVSS VL: DIQMTQSPSSLSASVGDRVTITCRASQSILSYVNWYQQKPGKAPKLLIYAATSRHSGVPSRFSGSGSGTDFTLTISSLQPEDFATYYCQQSYNNPLTFGGGTKVEIK"
3.34 OD,1.49 OD,1.42 OD,"367_B07 (antibody, V domains shown, VH/VL only) VH: EVQLLESGGGLVQPGGSLRLSCAASGFTFSDYSMNWVRQAPGKGLEWVAGINYNSGYTGYADSVKGRFTISRDNSKNTLYLQMNSLRAEDTAVYYCARSANWHDTHLDYWGQGTLVTVSS VL: DIQMTQSPSSLSASVGDRVTITCRASQSIISYVNWYQQKPGKAPKLLIYAATSLASGVPSRFSGSGSGTDFTLTISSLQPEDFATYYCQQSYNLPLTFGGGTKVEIK"
3.34 OD,1.37 OD,1.26 OD,"367_D05 (antibody, V domains shown, VH/VL only) VH: EVQLLESGGGLVQPGGSLRLSCAASGFTFSDYSMNWVRQAPGKGLEWVSSINYNGGYKSYADSVKGRFTISRDNSKNTLYLQMNSLRAEDTAVYYCARGATWHDTHLDYWGQGTLVTVSS VL: DIQMTQSPSSLSASVGDRVTITCRASQSIISYVNWYQQKPGKAPKLVIYAATSLASGVPSRFSGSGSGTDFTLTISSLQPEDFATYYCQQSYDSPLTFGGGTKVEIK"
